Source: patent publication US20040096942A1

Columns and labels:
[1] = biological target: GAL4DmEcR-DEF (yeast; fruit fly Drosophila melanogaster); experiment: cell-based or functional assay
[2] = biological target: GAL4CfEcR-DEF (yeast; spruce budworm Choristoneura fumiferana); experiment: cell-based or functional assay

## VP16MmRXRα(1-7)-LmUSP(8-12)-EF
[1]
  maximum fold induction of luciferase reporter, two-hybrid gene switch in NIH3T3 cells (fold induction): 1760
[2]
  maximum fold induction of luciferase reporter, two-hybrid gene switch in NIH3T3 cells (fold induction): 11000
